The target in assay [1] is BKPyV VLP genotype Ia (VP1 virus-like particles) (BK polyomavirus) (UniProt P03088). Put plainly: SPR; avidity.
The target in assay [2] is BKPyV VLP genotype II (VP1 virus-like particles) (BK polyomavirus) (UniProt P03088). Put plainly: SPR; avidity. For orientation: SPR reads the build-up and loss of mass on a sensor chip optically.
Assay [3] deals with BKPyV VLP genotype IVc2 (VP1 virus-like particles) (BK polyomavirus) (UniProt P03088). The experiment in a line: SPR; avidity.
In assay [4] the target is BKPyV VLP genotype III (VP1 virus-like particles) (BK polyomavirus) (UniProt P03088). The experiment in a line: SPR; avidity.
Assay [5] concerns the target BKPyV VLP genotype Ia (VP1 virus-like particles) (BK polyomavirus) (UniProt P03088). Put plainly: ELISA. For orientation: ELISA stands for enzyme-linked immunosorbent assay.
Assay [6] deals with BKPyV VLP genotype II (VP1 virus-like particles) (BK polyomavirus) (UniProt P03088). The experiment in a line: ELISA.
For assay [7], the target named is BKPyV VLP genotype IVc2 (VP1 virus-like particles) (BK polyomavirus) (UniProt P03088). Put plainly: ELISA.
Assay [8] addresses BKPyV VLP genotype III (VP1 virus-like particles) (BK polyomavirus) (UniProt P03088). The experiment in a line: ELISA.

Sequence of BKPyV VLP genotype II (VP1 virus-like particles) (BK polyomavirus) (P03088 whole entry, looked up): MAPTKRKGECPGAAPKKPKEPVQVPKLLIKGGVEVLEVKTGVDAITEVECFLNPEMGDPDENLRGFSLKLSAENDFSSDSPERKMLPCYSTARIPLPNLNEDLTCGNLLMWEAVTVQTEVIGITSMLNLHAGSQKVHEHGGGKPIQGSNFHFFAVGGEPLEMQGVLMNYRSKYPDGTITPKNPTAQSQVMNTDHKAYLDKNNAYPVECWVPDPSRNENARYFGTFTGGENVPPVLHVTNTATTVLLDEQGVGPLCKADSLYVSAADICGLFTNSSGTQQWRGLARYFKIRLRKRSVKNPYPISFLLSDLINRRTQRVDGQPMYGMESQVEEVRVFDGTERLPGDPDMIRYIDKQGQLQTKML
Sequence of BKPyV VLP genotype III (VP1 virus-like particles) (BK polyomavirus) (P03088 whole entry, looked up): as above
Sequence of BKPyV VLP genotype Ia (VP1 virus-like particles) (BK polyomavirus) (P03088 whole entry): as the sequence (P03088 whole entry, looked up) above
Sequence of BKPyV VLP genotype IVc2 (VP1 virus-like particles) (BK polyomavirus) (P03088 whole entry, looked up): as above

What is called EC50 is the concentration giving half of the maximal effect. A higher EC50 goes with weaker potency. As to “antibody 160 (clonotype 160, 41F17-like) (from UniProt P01857)”, the Kd in assay [1] is 0.23 nM; in assay [2], 0.28 nM; in assay [3], 0.27 nM; in assay [4] it was 0.17 nM. Also, the concentration for a half-maximal effect (EC50) in assay [5] turned out to be 0.14 nM; in assay [6], 0.38 nM; in assay [7], 0.14 nM; in assay [8], 0.13 nM.

As for “antibody 198 (clonotype 198, 41F17-like) (from UniProt P01857)”, the Kd in assay [1] was found to be 1.63 nM; in assay [2], 2.29 nM; in assay [3] it was 0.28 nM; in assay [4] it was 0.11 nM. Besides, the 50% effective concentration (EC50) in assay [5] stood at 0.54 nM; in assay [6], 1.41 nM; in assay [7], 0.43 nM; in assay [8] it was 0.9 nM.

Turning to “antibody 120 (clonotype 120, 41F17-like) (from UniProt P01857)”, the Kd in assay [1] is 0.11 nM; in assay [2], 0.16 nM; in assay [3], 0.86 nM; in assay [4], 0.21 nM. Also, the concentration for a half-maximal effect (EC50) came out at 0.17 nM in assay [5], 0.26 nM in assay [6], 0.19 nM in assay [7] and 0.24 nM in assay [8].

(Values after PMC9887757.)
